This series deals with the molecule itself. Briefly: gel filtration (Sephacryl S300) native size against about 150 kDa on SDS-PAGE; inference. The method, then:
The bound proteins were eluted with a 12-cv linear gradient from BD50 to BD450. The flow-through containing the HDM activity was adjusted to 700 mM ammonium sulfate before it was loaded onto a 22 mL Phenyl Sepharose® column (Pharmacia). The bound proteins were eluted with a cv linear gradient from BD700 to BD0. The active fractions, which eluted from 10-BD150-BD50, were combined and concentrated to 5 mL before they were loaded onto a 120 mL Sephacyl® S300 gel filtration column (Pharmacia). The active fractions, which eluted around 300 kDa, were pooled and loaded onto a 1 mL MonoS® column (Pharmacia) equilibrated with BC50. Bound proteins were eluted with a 20-cv linear gradient from BC50 to BC400. The active fractions eluted from BC100 to BC150. […]
To identify the protein(s) responsible for this demethylase activity, we monitored the enzymatic activity through five chromatography columns (Scheme 5). After purification of the 0.3 M P11 fraction through DEAE5PW and Phenyl Sepharose® columns, we determined that the native mass of the enzymatic activity was about 300 kDa as assessed by a Sephacyl® S300 column (FIG. 9A). […] To verify that JMJD1A was responsible for the detected demethylase activity, an antibody against this protein was generated and used to immunoprecipitate JMJD1A from the MonoS® column fractions 21-29. […]
(In general: Size exclusion chromatography separates by hydrodynamic size, large species first.)

Consider one protein from patent US20160244802A1 (UNIVERSITY OF NORTH CAROLINA AT CHAPEL HILL, published 2016).

B1: native JHDM2A (JMJD1A) purified from HeLa cells (enzyme)
chain: MVLTLGESWPVLVGRRFLSLSAADGSDGSHDSWDVERVAEWPWLSGTIRAVSHTDVTKKDLKVCVEFDGESWRKRRWIEVYSLLRRAFLVEHNLVLAERKSPEISERIVQWPAITYKPLLDKAGLGSITSVRFLGDQQRVFLSKDLLKPIQDVNSLRLSLTDNQIVSKEFQALIVKHLDESHLLKGDKNLVGSEVKIYSLDPSTQWFSATVINGNPASKTLQVNCEEIPALKIVDPSLIHVEVVHDNLVTCGNSARIGAVKRKSSENNGTLVSKQAKSCSEASPSMCPVQSVPTTVFKEILLGCTAATPPSKDPRQQSTPQAANSPPNLGAKIPQGCHKQSLPEEISSCLNTKSEALRTKPDVCKAGLLSKSSQIGTGDLKILTEPKGSCTQPKTNTDQENRLESVPQALTGLPKECLPTKASSKAELEIANPPELQKHLEHAPSPSDVSNAPEVKAGVNSDSPNNCSGKKVEPSALACRSQNLKESSVKVDNESCCSRSNNKIQNAPSRKSVLTDPAKLKKLQQSGEAFVQDDSCVNIVAQLPKCRECRLDSLRKDKEQQKDSPVFCRFFHFRRLQFNKHGVLRVEGFLTPNKYDNEAIGLWLPLTKNVVGIDLDTAKYILANIGDHFCQMVISEKEAMSTIEPHRQVAWKRAVKGVREMCDVCDTTIFNLHWVCPRCGFGVCVDCYRMKRKNCQQGAAYKTFSWLKCVKSQIHEPENLMPTQIIPGKALYDVGDIVHSVRAKWGIKANCPCSNRQFKLFSKPASKEDLKQTSLAGEKPTLGAVLQQNPSVLEPAAVGGEAASKPAGSMKPACPASTSPLNWLADLTSGNVNKENKEKQPTMPILKNEIKCLPPLPPLSKSSTVLHTFNSTILTPVSNNNSGFLRNLLNSSTGKTENGLKNTPKILDDIFASLVQNKTTSDLSKRPQGLTIKPSILGFDTPHYWLCDNRLLCLQDPNNKSNWNVFRECWKQGQPVMVSGVHHKLNSELWKPESFRKEFGEQEVDLVNCRTNEIITGATVGDFWDGFEDVPNRLKNEKEPMVLKLKDWPPGEDFRDMMPSRFDDLMANIPLPEYTRRDGKLNLASRLPNYFVRPDLGPKMYNAYGLITPEDRKYGTTNLHLDVSDAANVMVYVGIPKGQCEQEEEVLKTIQDGDSDELTIKRFIEGKEKPGALWHIYAAKDTEKIREFLKKVSEEQGQENPADHDPIHDQSWYLDRSLRKRLHQEYGVQGWAIVQFLGDVVFIPAGAPHQVHNLYSCIKVAEDFVSPEHVKHCFWLTQEFRYLSQTHTNHEDKLQVKNVIYHAVKDAVAMLKASESSFGKP
notes: Endogenous protein in MonoS column fractions from HeLa nuclear extract; also called TSGA
For the protein B1, the binding result was “binds”.
